The record followed here is patent US20160252527A1 (Takeda / Millennium, published 2016).

For experiment [1], the target named is human plasma kallikrein (pKal) (human, UniProt P03952 20-638). Put plainly: cell-based or functional assay.
For experiment [2], the target named is cynomolgus monkey plasma kallikrein (pKal) (cynomolgus monkey). The experiment can be described thus: cell-based or functional assay.
cynomolgus monkey plasma kallikrein (pKal) (cynomolgus monkey), sequence (chain, as listed by the source): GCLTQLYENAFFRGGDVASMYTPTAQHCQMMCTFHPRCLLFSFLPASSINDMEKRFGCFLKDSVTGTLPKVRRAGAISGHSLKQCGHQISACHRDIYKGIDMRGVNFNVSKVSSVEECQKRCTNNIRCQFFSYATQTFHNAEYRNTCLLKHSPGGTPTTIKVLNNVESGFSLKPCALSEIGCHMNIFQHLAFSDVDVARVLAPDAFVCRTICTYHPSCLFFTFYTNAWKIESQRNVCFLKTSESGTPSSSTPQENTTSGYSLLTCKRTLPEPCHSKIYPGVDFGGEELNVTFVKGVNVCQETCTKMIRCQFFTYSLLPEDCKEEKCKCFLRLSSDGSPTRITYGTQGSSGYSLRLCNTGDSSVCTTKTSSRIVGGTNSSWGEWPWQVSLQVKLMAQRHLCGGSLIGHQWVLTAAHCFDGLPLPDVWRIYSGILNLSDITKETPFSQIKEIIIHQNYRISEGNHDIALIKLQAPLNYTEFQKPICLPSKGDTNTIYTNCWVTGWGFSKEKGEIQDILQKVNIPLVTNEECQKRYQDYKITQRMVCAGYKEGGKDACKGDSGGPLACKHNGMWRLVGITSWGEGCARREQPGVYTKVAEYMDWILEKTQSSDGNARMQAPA

human plasma kallikrein (pKal), sequence (P03952 20-638 limits assumed): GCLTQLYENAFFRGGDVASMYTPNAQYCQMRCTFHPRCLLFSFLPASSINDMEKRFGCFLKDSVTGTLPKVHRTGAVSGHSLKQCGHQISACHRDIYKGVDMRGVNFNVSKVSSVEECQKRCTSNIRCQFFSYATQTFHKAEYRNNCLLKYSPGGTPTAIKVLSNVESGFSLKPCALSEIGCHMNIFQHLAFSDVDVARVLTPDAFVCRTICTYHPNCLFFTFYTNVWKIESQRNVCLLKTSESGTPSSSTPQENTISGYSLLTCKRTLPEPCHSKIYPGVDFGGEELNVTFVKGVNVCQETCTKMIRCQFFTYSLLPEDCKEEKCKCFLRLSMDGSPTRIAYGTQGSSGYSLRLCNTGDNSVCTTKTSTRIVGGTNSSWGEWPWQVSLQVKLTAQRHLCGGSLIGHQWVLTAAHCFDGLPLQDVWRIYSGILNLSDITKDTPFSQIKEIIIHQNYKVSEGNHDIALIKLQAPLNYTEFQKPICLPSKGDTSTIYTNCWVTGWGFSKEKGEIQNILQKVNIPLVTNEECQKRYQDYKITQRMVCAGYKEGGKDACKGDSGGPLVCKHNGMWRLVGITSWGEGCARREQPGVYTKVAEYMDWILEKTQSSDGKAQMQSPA

B1: alpha 2 macroglobulin (α2M) (other, UniProt P01023 24-1474, looked up)
chain: SVSGKPQYMVLVPSLLHTETTEKGCVLLSYLNETVTVSASLESVRGNRSLFTDLEAENDVLHCVAFAVPKSSSNEEVMFLTVQVKGPTQEFKKRTTVMVKNEDSLVFVQTDKSIYKPGQTVKFRVVSMDENFHPLNELIPLVYIQDPKGNRIAQWQSFQLEGGLKQFSFPLSSEPFQGSYKVVVQKKSGGRTEHPFTVEEFVLPKFEVQVTVPKIITILEEEMNVSVCGLYTYGKPVPGHVTVSICRKYSDASDCHGEDSQAFCEKFSGQLNSHGCFYQQVKTKVFQLKRKEYEMKLHTEAQIQEEGTVVELTGRQSSEITRTITKLSFVKVDSHFRQGIPFFGQVRLVDGKGVPIPNKVIFIRGNEANYYSNATTDEHGLVQFSINTTNVMGTSLTVRVNYKDRSPCYGYQWVSEEHEEAHHTAYLVFSPSKSFVHLEPMSHELPCGHTQTVQAHYILNGGTLLGLKKLSFYYLIMAKGGIVRTGTHGLLVKQEDMKGHFSISIPVKSDIAPVARLLIYAVLPTGDVIGDSAKYDVENCLANKVDLSFSPSQSLPASHAHLRVTAAPQSVCALRAVDQSVLLMKPDAELSASSVYNLLPEKDLTGFPGPLNDQDNEDCINRHNVYINGITYTPVSSTNEKDMYSFLEDMGLKAFTNSKIRKPKMCPQLQQYEMHGPEGLRVGFYESDVMGRGHARLVHVEEPHTETVRKYFPETWIWDLVVVNSAGVAEVGVTVPDTITEWKAGAFCLSEDAGLGISSTASLRAFQPFFVELTMPYSVIRGEAFTLKATVLNYLPKCIRVSVQLEASPAFLAVPVEKEQAPHCICANGRQTVSWAVTPKSLGNVNFTVSAEALESQELCGTEVPSVPEHGRKDTVIKPLLVEPEGLEKETTFNSLLCPSGGEVSEELSLKLPPNVVEESARASVSVLGDILGSAMQNTQNLLQMPYGCGEQNMVLFAPNIYVLDYLNETQQLTPEIKSKAIGYLNTGYQRQLNYKHYDGSYSTFGERYGRNQGNTWLTAFVLKTFAQARAYIFIDEAHITQALIWLSQRQKDNGCFRSSGSLLNNAIKGGVEDEVTLSAYITIALLEIPLTVTHPVVRNALFCLESAWKTAQEGDHGSHVYTKALLAYAFALAGNQDKRKEVLKSLNEEAVKKDNSVHWERPQKPKAPVGHFYEPQAPSAEVEMTSYVLLAYLTAQPAPTSEDLTSATNIVKWITKQQNAQGGFSSTQDTVVALHALSKYGAATFTRTGKAAQVTIQSSGTFSSKFQVDNNNRLLLQQVSLPELPGEYSMKVTGEGCVYLQTSLKYNILPEKEEFPFALGVQTLPQTCDEPKAHTSFQISLSVSYTGSRSASNMAIVDVKMVSGFIPLKPTVKMLERSNHVSRTEVSSNHVLIYLDKVSNQTLSLFFTVLQDVPVRDLKPAIVKVYDYYETDEFAIAEYNAPCSKDLGNA
Consider B1, for which the “IC50 (read off the curve)” value in experiment [1] is roughly 400 nM.

B2: DX-2930 (antibody, INN chains, looked up, V domains shown)
VH: EVQLLESGGGLVQPGGSLRLSCAASGFTFSHYIMMWVRQAPGKGLEWVSGIYSSGGITVYADSVKGRFTISRDNSKNTLYLQMNSLRAEDTAVYYCAYRRIGVPRRDEFDIWGQGTMVTVSS
VL: DIQMTQSPSTLSASVGDRVTITCRASQSISSWLAWYQQKPGKAPKLLIYKASTLESGVPSRFSGSGSGTEFTLTISSLQPDDFATYYCQQYNTYWTFGQGTKVEIK
As for B2, the percent inhibition of pKal activity (Pro-Phe-Arg-AMC substrate) after ex vivo FXIIa activation of plasma of a dosed monkey, drug level ~265 nM in experiment [2] was 80%. In experiment [1], this molecule returned a % Reduction of one-chain HMWK (XIIa activated plasma, 9 nM DX2930; Protein Simple Western) of 92.1%; a % Reduction of one-chain HMWK (XIIa activated plasma, 27 nM DX2930; Protein Simple Western) of 90.4%; a % Reduction of one-chain HMWK (XIIa activated plasma, 80 nM DX2930; Protein Simple Western) of 79%; a % Reduction of one-chain HMWK (XIIa activated plasma, 240 nM DX2930; Protein Simple Western) of 63.9%. Besides, in experiment [1], the % Reduction of one-chain HMWK (XIIa activated plasma, 480 nM DX2930; Protein Simple Western) came to 54.9%; the Area of the one-chain HMWK peak (XIIa activated plasma, 9 nM DX2930; Protein Simple Western) was determined as 842; the Area of the one-chain HMWK peak (XIIa activated plasma, 27 nM DX2930; Protein Simple Western) is 1030; the Area of the one-chain HMWK peak (XIIa activated plasma, 80 nM DX2930; Protein Simple Western) amounted to 2230. In experiment [1], this molecule had an Area of the one-chain HMWK peak (XIIa activated plasma, 240 nM DX2930; Protein Simple Western) of 3840; an Area of the one-chain HMWK peak (XIIa activated plasma, 480 nM DX2930; Protein Simple Western) of 4800; a maximal inhibition of pKal activity (PFR-AMC substrate), plasma of dose group 3 (1.0 mg/kg DX-2930) of 19%; a maximal inhibition of pKal activity (PFR-AMC substrate), plasma of dose group 4 (3.0 mg/kg DX-2930) of 36%.
